Measured values from paper PMC10294631.
pKd: −log10 of the molar value.

Test system: CsrA-His6
Assay: EMSA

## hmsE RNA 104 nt (GGA2 and GGA3)
  pKd: 6.86
